Reference: patent US7943141B2, “Activated polyoxazolines and compositions comprising the same” (Serina Therapeutics, Inc., priority 2007, dated 2011)

T1: catalase (Bos taurus, UniProt P00432)
T1 sequence (P00432 2-527 limits assumed): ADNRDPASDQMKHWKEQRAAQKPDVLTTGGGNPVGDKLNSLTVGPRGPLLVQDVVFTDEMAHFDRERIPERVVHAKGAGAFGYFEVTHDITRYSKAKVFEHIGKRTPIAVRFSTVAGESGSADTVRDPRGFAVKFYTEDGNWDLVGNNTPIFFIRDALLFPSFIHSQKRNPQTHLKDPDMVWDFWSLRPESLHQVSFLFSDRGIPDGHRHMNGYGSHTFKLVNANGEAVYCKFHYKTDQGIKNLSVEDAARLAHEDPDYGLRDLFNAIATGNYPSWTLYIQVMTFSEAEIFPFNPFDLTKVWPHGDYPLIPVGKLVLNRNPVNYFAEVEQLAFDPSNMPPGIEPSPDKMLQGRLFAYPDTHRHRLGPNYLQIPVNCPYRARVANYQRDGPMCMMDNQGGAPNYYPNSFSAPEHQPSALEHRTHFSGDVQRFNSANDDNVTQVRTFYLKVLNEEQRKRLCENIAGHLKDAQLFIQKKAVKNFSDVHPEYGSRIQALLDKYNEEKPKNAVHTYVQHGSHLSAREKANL

T2: ribonuclease A (Bos taurus, UniProt P61823)
T2 sequence (P61823 27-150): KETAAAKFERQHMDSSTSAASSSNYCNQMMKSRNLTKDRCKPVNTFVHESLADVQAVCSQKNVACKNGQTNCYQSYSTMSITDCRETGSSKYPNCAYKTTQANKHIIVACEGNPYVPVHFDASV

B1: RNAse: native ribonuclease A (protein, UniProt P61823 27-150, looked up)
Ribonuclease pancreatic: T2 sequence (P61823 27-150)
B2: POZ/RNAse: ribonuclease A modified with M-PEOZ-O—CH2—CO2—NHS (6 kDa) (conjugate, UniProt P61823 27-150, looked up)
Ribonuclease pancreatic: T2 sequence (P61823 27-150)
modifications: M-PEOZ 6 kDa conjugate
B3: PEG/RNAse: ribonuclease A modified with PEG-O—CH2—CO2—NHS (5.5 kDa) (conjugate, UniProt P61823 27-150, looked up)
Ribonuclease pancreatic: T2 sequence (P61823 27-150)
modifications: PEG 5.5 kDa conjugate

Tests used:
catalase = target: T1, catalase; experiment: Catalase enzymatic activity (method of Beers and Sizer); assay type: biochemical; settings: native enzyme
Text: (§1) To evaluate the different influence on enzyme properties as a function of polymerization with POZ derivatives of the present disclosure and corresponding PEG polymers known in the art, three different enzymes, ribonuclease A, uricase and catalase, were modified with M-PEOZ-O—CH2—CO2—NHS (6 kDa) and PEG-O—CH2—CO2—NHS (5.5 kDa). To facilitate the comparison, each enzyme was modified under similar conditions regarding polymer to enzyme ratios, buffer, pH and reaction temperature.
The conditions of enzyme modification with the POZ and PEG polymers described above were 0.2 M, pH 8.5 in borate buffer. The amount of POZ and PEG polymer used for modification was calculated on the basis of calculated total available amino groups in each enzyme. […]
To the three enzymes solutions (2.5 mg/ml) M-POZ-O—CH2—CO2—NHS or PEG-O—CH2—CO2—NHS solid were added at room temperature at a molar ratio of polymer to protein amino groups of 2/1 and 1/1 respectively. Protein concentration of the native forms of ribonuclease, uricase and catalase was evaluated spectrophotometrically using molar extinction coefficients of 9.45×10^3, 13×10^3 and 1.67×10^5 at 280 nm, respectively. […]
The degree of protein modification was evaluated colorimetrically by TNBS assay and expressed as percentage of conjugate amino groups to the total ones present on the protein. […]

ribonuclease A = target: T2, ribonuclease A; experiment: Ribonuclease enzymatic activity (method of Crook et al.); assay type: biochemical
Text: as §1
The conditions of enzyme modification with the POZ and PEG polymers described above were 0.2 M, pH 8.5 in borate buffer. The amount of POZ and PEG polymer used for modification was calculated on the basis of calculated total available amino groups in each enzyme. For example, ribonuclease A has a molecular weight of 13.7 kDa and 11 available amino groups; uricase has a molecular weight of 130 kDa and 100 available amino groups; and catalase has a molecular weight of 240 kDa and 112 available amino groups.
To the three enzymes solutions (2.5 mg/ml) M-POZ-O—CH2—CO2—NHS or PEG-O—CH2—CO2—NHS solid were added at room temperature at a molar ratio of polymer to protein amino groups of 2/1 and 1/1 respectively. Protein concentration of the native forms of ribonuclease, uricase and catalase was evaluated spectrophotometrically using molar extinction coefficients of 9.45×10^3, 13×10^3 and 1.67×10^5 at 280 nm, respectively. After 30 minutes, polymer-enzyme conjugates were purified from unreacted polymer and n-hydroxysuccinimide by gel filtration chromatography Sephadex G-75 column, with 0.1M phosphate buffer, pH 7.4 as eluent.
The degree of protein modification was evaluated colorimetrically by TNBS assay and expressed as percentage of conjugate amino groups to the total ones present on the protein. Enzymatic activity of native and modified enzymes was evaluated as follows: ribonuclease activity was assayed by the method of Crook et al. (Biochem J. 1960 February; 74:234-8); uricase activity was determined by the method of Mahler (Anal Biochem. 1970 November; 38(1):65-84); and catalase was assayed according to a method reported by Beers and Sizer (J. Biol. Chem. 1952 March; 195(1):133-40).

Row | Molecule | % activity (catalase) | % activity (ribonuclease A; native enzyme) | % activity (ribonuclease A; NH2:polymer molar ratio 1:1) | % activity (ribonuclease A; NH2:polymer molar ratio 2:1)
1 | Catalase | 100% |  |  | 
2 | B1 |  | 100% |  | 
3 | B2 |  |  | 50% | 30%
4 | B3 |  |  | 15% | 10%
